{"source": "patent US20190185560A1", "about": "(Novo Nordisk, published 2019)", "binders": {"B1": {"name": "mAb 0170 (humanised TREM-1 antibody, mAb 0170 of WO2013/120553) (antibody, V domains shown)", "VH": "EVQLVESGGGLVQPGGSLKLSCAASGFTFSTYAMHWVRQASGKGLEWVGRIRTKSSNYATYYAASVKGRFTISRDDSKNTAYLQMNSLKTEDTAVYYCTRDMGIRRQFAYWGQGTLVTVSS", "VL": "DIVLTQSPDSLAVSLGERATINCRASESVDTFDYSFLHWYQQKPGQPPKLLIYRASNLESGVPDRFSGSGSGTDFTLTISSLQAEDVAVYYCQQSNEDPYTFGQGTKLEIKR", "notes": "also called mAb 170"}, "B2": {"name": "mAb 0318 (mAb 0170 variant, light chain E27Q, E97Q) (antibody, human IgG4 S228P, kappa, V domains shown)", "VH": "B1 VH", "VL": "B1 VL with E27Q, E97Q", "notes": "Charge patch mutations"}, "B3": {"name": "mAb 0317 (mAb 0170 variant, light chain E27Q, E97S) (antibody, human IgG4 S228P, kappa, V domains shown)", "VH": "B1 VH", "VL": "B1 VL with E27Q, E97S", "notes": "Charge patch mutations"}, "B4": {"name": "mAb 0322 (mAb 0170 variant, light chain F32A) (antibody, human IgG4 S228P, kappa, V domains shown)", "VH": "B1 VH", "VL": "B1 VL with F32A"}, "B5": {"name": "mAb 0319 (mAb 0170 variant, light chain E97S) (antibody, human IgG4 S228P, kappa, V domains shown)", "VH": "B1 VH", "VL": "B1 VL with E97S", "notes": "Charge patch mutation"}, "B6": {"name": "mAb 0330 (mAb 0170 variant, light chain F32A, E27Q, E97Q) (antibody, human IgG4 S228P, kappa, V domains shown)", "VH": "B1 VH", "VL": "B1 VL with E27Q, F32A, E97Q"}, "B7": {"name": "Fab region of mAb 0170 (Fab, V domains shown)", "VH": "B1 VH", "VL": "B1 VL", "notes": "Crystallised alone; packs as Fab-Fab dimers; also called Fab 0170; mAb 170 Fab region"}, "B8": {"name": "mAb 0324 (mAb 0170 variant, heavy chain A59Y) (antibody, human IgG4 S228P, kappa, V domains shown)", "VH": "B1 VH with A59Y", "VL": "B1 VL"}, "B9": {"name": "mAb 0333 (mAb 0170 variant, heavy chain A59Y, light chain F32A, E27Q, E97Q) (antibody, human IgG4 S228P, kappa, V domains shown)", "VH": "B1 VH with A59Y", "VL": "B1 VL with E27Q, F32A, E97Q"}, "B10": {"name": "mAb 0320 (mAb 0170 variant, light chain E97Q) (antibody, human IgG4 S228P, kappa, V domains shown)", "VH": "B1 VH", "VL": "B1 VL with E97Q", "notes": "Charge patch mutation"}, "B11": {"name": "mAb 0323 (mAb 0170 variant, light chain F32S) (antibody, human IgG4 S228P, kappa, V domains shown)", "VH": "B1 VH", "VL": "B1 VL with F32S"}, "B12": {"name": "mAb 0325 (mAb 0170 variant, heavy chain N57S) (antibody, human IgG4 S228P, kappa, V domains shown)", "VH": "B1 VH with N57S", "VL": "B1 VL"}, "B13": {"name": "mAb 0332 (mAb 0170 variant, heavy chain A59Y, light chain E27Q, E97Q) (antibody, human IgG4 S228P, kappa, V domains shown)", "VH": "B1 VH with A59Y", "VL": "B1 VL with E27Q, E97Q"}, "B14": {"name": "mAb 0321 (mAb 0170 variant, light chain E27Q) (antibody, human IgG4 S228P, kappa, V domains shown)", "VH": "B1 VH", "VL": "B1 VL with E27Q", "notes": "Charge patch mutation"}}, "note": "Numbering of substitutions follows the chain as printed. Names may count otherwise.", "data": [{"target": "T1, cynomolgus TREM-1 on cells (TE426.27 reporter cell line) (cynomolgus monkey)", "T1 chain": "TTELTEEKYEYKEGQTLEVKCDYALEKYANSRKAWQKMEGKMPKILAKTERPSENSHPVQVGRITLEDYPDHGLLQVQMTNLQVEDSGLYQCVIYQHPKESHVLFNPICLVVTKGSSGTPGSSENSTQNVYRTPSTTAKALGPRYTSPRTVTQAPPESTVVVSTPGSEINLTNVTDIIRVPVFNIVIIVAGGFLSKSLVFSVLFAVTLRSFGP", "assay": "cell-based or functional assay", "units": {"IC50: inhibition of luminescence of TE426.27 cynomolgus TREM-1 reporter cells stimulated with PGN and recombinant PGLYRP1": "nM"}, "values": [{"binder": "B1", "IC50: inhibition of luminescence of TE426.27 cynomolgus TREM-1 reporter cells stimulated with PGN and recombinant PGLYRP1": 6}, {"binder": "B2", "IC50: inhibition of luminescence of TE426.27 cynomolgus TREM-1 reporter cells stimulated with PGN and recombinant PGLYRP1": 5.6}, {"binder": "B3", "IC50: inhibition of luminescence of TE426.27 cynomolgus TREM-1 reporter cells stimulated with PGN and recombinant PGLYRP1": 9.5}, {"binder": "B4", "IC50: inhibition of luminescence of TE426.27 cynomolgus TREM-1 reporter cells stimulated with PGN and recombinant PGLYRP1": 5.9}, {"binder": "B5", "IC50: inhibition of luminescence of TE426.27 cynomolgus TREM-1 reporter cells stimulated with PGN and recombinant PGLYRP1": 17.7}, {"binder": "B6", "IC50: inhibition of luminescence of TE426.27 cynomolgus TREM-1 reporter cells stimulated with PGN and recombinant PGLYRP1": 10.7}]}, {"target": "the molecule itself", "assay": "X-ray crystal structure of the Fab region of mAb 0170 (self-interaction in the crystal)", "values": [{"binder": "B7", "binding result": "binds"}]}, {"target": "T2, cynomolgus TREM-1-Fc (cynomolgus monkey)", "T2 construct": "also called cTREM-1", "T2 chain": "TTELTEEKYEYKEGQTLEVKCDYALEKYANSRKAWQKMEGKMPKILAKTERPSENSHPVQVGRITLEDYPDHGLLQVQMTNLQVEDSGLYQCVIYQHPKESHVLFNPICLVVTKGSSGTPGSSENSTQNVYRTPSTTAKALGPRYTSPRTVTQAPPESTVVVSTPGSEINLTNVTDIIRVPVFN", "assay": "SPR (ProteOn), antibody captured via anti-Fc, TREM-1-Fc as analyte, 1:1 Langmuir fit, 25 C", "experimental": "Binding studies were performed on a ProteOn Analyzer (BioRad) that measures molecular interactions in real time through surface plasmon resonance. Experiments were run at 25° C. and the samples were stored at 15° C. in the sample compartment. The signal (RU, response units) reported by the ProteOn is directly correlated to the mass on the individual sensor chip surfaces in the six parallel flow cells. Anti-human Fc monoclonal or anti-murine Fc polyclonal antibody from Biacore human or mouse Fc capture kits were immobilized in horizontal direction onto flow cells of a GLM sensor chip according to the manufacturer's instructions. The final immobilization level of capture antibody was approximately 2600-6000 RU in each experiment. The capture of purified monoclonal mouse or recombinantly expressed anti-hTREM-1 antibodies was conducted by diluting the antibodies to 5-10 nM into running buffer (10 mM Hepes 0.15 M NaCl, 5 mM EDTA, 0.05% surfactant P20, pH 7.4) followed by injection in vertical direction at 30 μL/min for 60 sec, creating reference interspots adjacent to all flow cells with only anti-Fc antibody immobilized. […] Binding of hTREM-1 or cTREM-1 proteins was conducted by injecting analyte (antigen) over all flow cells in horizontal direction to allow for comparative analyses of binding to different captured anti-TREM-1 antibodies relative to binding to the reference interspot. hTREM-1 or cTREM-1 proteins were diluted serially 1:3 to 1.2-100 nM or into running buffer, injected at 100 μL/min for 250 s and allowed to dissociate for 600 s. The GLM surface was regenerated after each injection cycle of analyte via two 18 s injections of 10 mM Glycine, pH 1.7 and 50 mM NaOH at 100 μL/min. This regeneration step removed the anti-TREM-1 antibody and any bound TREM-1 protein from the immobilized capture antibody surface and allowed for the subsequent binding of the next interaction sample pair.", "units": {"Kd": "nM"}, "values": [{"binder": "B1", "Kd": 2}, {"binder": "B8", "Kd": 4}, {"binder": "B9", "Kd": 0.3}, {"binder": "B2", "Kd": 2}, {"binder": "B3", "Kd": 3}, {"binder": "B4", "Kd": 0.1}, {"binder": "B10", "Kd": 3}, {"binder": "B5", "Kd": 2}, {"binder": "B11", "Kd": 0.6}, {"binder": "B12", "Kd": 1}, {"binder": "B6", "Kd": 0.1}, {"binder": "B13", "Kd": 4}, {"binder": "B14", "Kd": 2}]}]}
